Holding throughout (settings): tags: 20 aa N-terminal tag incl; 6xHis (pET28)
Data set [1] addresses ZmSRTF18 (SPL VAR4) (Zea mays). Nature of the data set: EMSA; DTT, 300 mM KCl, salmon DNA; binding to DRE stated specific versus this mutant. The protocol: (§1) In gel-shift assays, also known as electrophoretic mobility shift assays (EMSA), DNA with bound protein will traverse the gel more slowly than DNA without bound protein. Thus, gel shift assays indicate whether a protein binds to a specific DNA fragment. The gel shift assays of FIG. 6 were performed using the Molecular Probes™ EMSA Kit (E33075), which provides background information, materials, and methods for gel shift experiments. The assays were done in the presence or in the absence of DTT (dithiothreitol), as it is not certain which condition most accurately reflects the in vivo condition. DNA was stained with SYBR® Green according to the manufacturer's protocol.
(§2) To determine whether DNA binding was specific, and to examine binding of the less severely truncated proteins ZmSRTF18-del (ALT5) (SEQ ID NO: 26) and ZmSRTF18-del (ALT6) (SEQ ID NO: 27), further gel shift experiments were performed in the presence of DTT with the same 34 bp DNA fragment, or with the corresponding fragment that had the DRE element ACCGAC mutated to TTTTTT. Conditions were also optimized to reduce nonspecific binding by adding 300 mM KCl and sheared salmon DNA.

In data set [2] the target is ZmSRTF18-del (ALT6) (Zea mays). The data set is described as above. The protocol:
as §1, §2

Data set [3] addresses ZmSRTF18 (SPL VAR4) (C71S) (Zea mays, C71S). Described as above. The protocol:
as §1, §2

For another data set, the target named is ZmSRTF18-del (ALT2) (Zea mays). Briefly: EMSA; with or without DTT; obvious gel shift. The protocol: as §1, §2
Chain of ZmSRTF18-del (ALT2) (Zea mays) (chain, as listed by the source): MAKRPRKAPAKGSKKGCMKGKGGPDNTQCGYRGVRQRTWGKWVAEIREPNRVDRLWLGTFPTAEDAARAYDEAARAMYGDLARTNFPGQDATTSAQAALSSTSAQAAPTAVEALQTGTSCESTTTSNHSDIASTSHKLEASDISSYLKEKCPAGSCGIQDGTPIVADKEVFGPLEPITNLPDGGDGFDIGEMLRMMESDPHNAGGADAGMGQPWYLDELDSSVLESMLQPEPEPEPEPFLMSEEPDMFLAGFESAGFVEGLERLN
A general note: In EMSA bound probe runs differently from free probe, usually more slowly.

In data set [4] the target is ZmSRTF18-del (ALT6) (Zea mays). Nature of the data set: EMSA; DTT, 300 mM KCl, sheared salmon DNA; strong specific binding. As for the experimental part: as §1, §2
Chain of ZmSRTF18-del (ALT6) (Zea mays) (chain, as listed by the source): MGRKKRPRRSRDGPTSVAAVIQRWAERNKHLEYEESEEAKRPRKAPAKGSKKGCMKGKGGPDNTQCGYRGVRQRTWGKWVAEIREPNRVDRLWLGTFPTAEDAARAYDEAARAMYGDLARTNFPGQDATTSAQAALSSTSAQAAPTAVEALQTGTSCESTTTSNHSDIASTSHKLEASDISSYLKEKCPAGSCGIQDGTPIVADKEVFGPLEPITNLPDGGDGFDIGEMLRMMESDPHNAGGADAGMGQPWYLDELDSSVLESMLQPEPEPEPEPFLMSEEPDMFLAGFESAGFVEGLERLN
Another data set addresses ZmSRTF18-del (Zea mays). Briefly: EMSA; no DTT; did not appear to bind. As for the experimental part: as §1
The target in data set [5] is ZmSRTF18 (SPL VAR4) (Zea mays). Nature of the data set: EMSA; with or without DTT; strong and specific also with 300 mM KCl and salmon DNA. As for the experimental part:
as §1, §2

For data set [6], the target named is ZmSRTF18 (SPL VAR4) (C71S) (Zea mays, C71S). The description is as above. As for the experimental part:
as §1, §2

Chain of ZmSRTF18 (SPL VAR4) (Zea mays) (chain, as listed by the source): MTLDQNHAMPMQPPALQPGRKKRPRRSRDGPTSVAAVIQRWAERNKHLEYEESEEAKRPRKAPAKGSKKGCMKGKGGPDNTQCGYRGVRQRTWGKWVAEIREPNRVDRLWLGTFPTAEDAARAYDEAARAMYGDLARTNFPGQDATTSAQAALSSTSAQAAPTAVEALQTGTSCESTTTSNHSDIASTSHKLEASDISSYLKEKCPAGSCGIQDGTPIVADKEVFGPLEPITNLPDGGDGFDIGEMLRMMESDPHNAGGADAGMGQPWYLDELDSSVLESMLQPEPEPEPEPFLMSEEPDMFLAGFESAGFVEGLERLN
Chain of ZmSRTF18 (SPL VAR4) (C71S) (Zea mays, C71S) (chain, as listed by the source C71S | C71S C71S): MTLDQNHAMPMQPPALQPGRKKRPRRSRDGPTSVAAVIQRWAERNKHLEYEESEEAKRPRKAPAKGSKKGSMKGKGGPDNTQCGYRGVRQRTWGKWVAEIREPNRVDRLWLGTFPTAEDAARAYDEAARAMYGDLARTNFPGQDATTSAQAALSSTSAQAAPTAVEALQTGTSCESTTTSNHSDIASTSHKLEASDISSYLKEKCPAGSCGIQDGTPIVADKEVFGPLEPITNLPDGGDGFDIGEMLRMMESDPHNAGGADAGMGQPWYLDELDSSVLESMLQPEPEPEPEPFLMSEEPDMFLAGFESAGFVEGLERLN
Chain of ZmSRTF18-del (Zea mays) (chain, as listed by the source): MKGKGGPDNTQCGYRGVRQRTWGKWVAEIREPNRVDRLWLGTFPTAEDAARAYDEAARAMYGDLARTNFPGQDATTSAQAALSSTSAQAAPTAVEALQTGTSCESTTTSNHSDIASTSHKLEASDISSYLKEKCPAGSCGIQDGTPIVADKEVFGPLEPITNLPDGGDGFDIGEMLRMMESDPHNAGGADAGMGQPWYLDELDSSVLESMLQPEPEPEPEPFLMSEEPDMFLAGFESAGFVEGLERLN

B1: RAB17 DRE mutant fragment (dsDNA)
DNA 1: TAAATTCAGCCTGTTTTTTCGCCTGCATTGAATA
DNA 2: TATTCAATGCAGGCGAAAAAACAGGCTGAATTTA
With B1, the binding result (in the data set with ZmSRTF18 (SPL VAR4) [1]; in the data set with ZmSRTF18-del (ALT6) [2]; in data set [3]) was “no binding” throughout.

B2: RAB17 promoter DRE fragment (dsDNA)
DNA 1: TAAATTCAGCCTGACCGACCGCCTGCATTGAATA
DNA 2: TATTCAATGCAGGCGGTCGGTCAGGCTGAATTTA
On to B2, for which the binding result with ZmSRTF18-del (ALT2) is recorded as “binds”; in the data set with ZmSRTF18-del (ALT6) [4], “binds”; with ZmSRTF18-del, “no binding”; with ZmSRTF18 (SPL VAR4) [5], “binds”; in data set [6], “binds”.
